Data reported in paper PMC6242696 (Cell, 2018).
Changes are numbered by the printed parent chain.

B1: TIM9⋅10 chaperone complex (hexamer of Tim9 and Tim10), wild type (complex, Saccharomyces cerevisiae)
chain 1: MDALNSKEQQEFQKVVEQKQMKDFMRLYSNLVERCFTDCVNDFTTSKLTNKEQTCIMKCSEKFLKHSERVGQRFQEQNAALGQGLGR
chain 2: GSFLGFGGGQPQLSSQQKIQAAEAELDLVTDMFNKLVNNCYKKCINTSYSEGELNKNESSCLDRCVAKYFETNVQVGENMQKMGQSFNAAGKF
B2: Tim9 (individual subunit) (natural protein, Saccharomyces cerevisiae)
chain: B1 chain 1

Assays:
[1] = molecular target: T1, GDP/GTP carrier Ggc1 (containing the mutation C222S), C-terminal 6xHis-tag (Saccharomyces cerevisiae, C222S (stands in the printed letters)); assay: AUC + other: diffusion-ordered NMR
T1 chain: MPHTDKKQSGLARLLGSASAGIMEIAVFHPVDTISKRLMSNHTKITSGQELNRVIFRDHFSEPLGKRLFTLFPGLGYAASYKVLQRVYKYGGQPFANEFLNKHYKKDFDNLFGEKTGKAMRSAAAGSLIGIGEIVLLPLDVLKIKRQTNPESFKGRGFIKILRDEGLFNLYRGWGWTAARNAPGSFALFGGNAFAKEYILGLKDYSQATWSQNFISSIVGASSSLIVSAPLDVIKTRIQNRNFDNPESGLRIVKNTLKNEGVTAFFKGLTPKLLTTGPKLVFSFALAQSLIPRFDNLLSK

[2] = molecular target: Aac3(2TM), comprising transmembrane helices 2 and 3 (residues 50-180), N-terminal 6xHis-Tag; assay: AUC + other: diffusion-ordered NMR
[3] = molecular target: T1, GDP/GTP carrier Ggc1 (containing the …); assay: SAXS with online Ni-NTA purification
SEC = molecular target: the molecule itself; assay: SEC
[4] = molecular target: T2, Tim10 V29K (subunit of the mutant complex) (Saccharomyces cerevisiae, UniProt P87108 2-93, V29K); assay: SEC
T2 sequence (looked up): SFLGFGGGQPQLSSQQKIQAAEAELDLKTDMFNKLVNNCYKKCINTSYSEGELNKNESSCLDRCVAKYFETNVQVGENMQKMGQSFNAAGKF

[5] = molecular target: T3, Tim10 M32K (subunit of the mutant complex) (Saccharomyces cerevisiae, UniProt P87108 2-93, M32K); assay: SEC
T3 sequence (looked up): T2 sequence (looked up) with K28V, M31K

Row | Binder | stoichiometry N [1] | stoichiometry N [2] | stoichiometry N [3] [TIM9⋅10 hexamers per Ggc1] | stoichiometry N (SEC) | binding result [4] | binding result [5]
1 | B1 | 2 TIM9⋅10 hexamers per precursor protein | 1 TIM9⋅10 hexamer per precursor chain | 2 |  |  | 
2 | B2 |  |  |  | 2 | binds | binds
